Positions count from the first letter of the chain named. Names may count otherwise.
T1: hu-M-IL1RAP construct, positions S21-T367 (extracellular domain of the membrane form of human IL1RAP) (human, UniProt Q9NPH3 21-367)
T1 construct: Biotinylated when captured on the Biacore chip
T1 sequence: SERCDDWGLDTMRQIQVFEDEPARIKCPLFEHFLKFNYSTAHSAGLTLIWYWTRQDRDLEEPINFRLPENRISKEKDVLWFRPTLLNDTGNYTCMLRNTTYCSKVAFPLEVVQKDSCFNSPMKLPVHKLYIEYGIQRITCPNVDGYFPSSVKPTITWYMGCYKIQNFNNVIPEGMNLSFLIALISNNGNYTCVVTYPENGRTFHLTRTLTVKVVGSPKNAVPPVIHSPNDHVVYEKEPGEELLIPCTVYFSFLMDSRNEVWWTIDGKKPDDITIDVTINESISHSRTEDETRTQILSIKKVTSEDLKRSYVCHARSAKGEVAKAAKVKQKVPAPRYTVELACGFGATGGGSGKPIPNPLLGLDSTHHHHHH

T2: human IL1RAP (hu-IL1RAP) on human cells (human, UniProt Q9NPH3 21-570)
T2 sequence: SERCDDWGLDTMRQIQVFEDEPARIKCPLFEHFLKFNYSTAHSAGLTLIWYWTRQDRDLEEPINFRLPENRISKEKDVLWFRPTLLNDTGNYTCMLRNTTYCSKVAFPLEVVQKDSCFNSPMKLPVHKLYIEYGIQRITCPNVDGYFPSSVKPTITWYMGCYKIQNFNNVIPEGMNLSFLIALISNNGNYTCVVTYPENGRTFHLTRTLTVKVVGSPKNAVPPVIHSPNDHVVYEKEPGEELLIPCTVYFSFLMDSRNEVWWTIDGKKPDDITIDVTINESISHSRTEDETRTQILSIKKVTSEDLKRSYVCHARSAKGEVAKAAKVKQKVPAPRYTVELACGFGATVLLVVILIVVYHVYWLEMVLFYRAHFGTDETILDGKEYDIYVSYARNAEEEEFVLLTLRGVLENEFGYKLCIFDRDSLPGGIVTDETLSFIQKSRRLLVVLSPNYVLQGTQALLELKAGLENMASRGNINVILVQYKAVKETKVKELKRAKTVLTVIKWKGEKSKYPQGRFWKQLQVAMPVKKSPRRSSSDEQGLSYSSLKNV

B1: h11C5_C59A (antibody, human IgG1, V domains shown)
VH: EVQLVESGGGLVQPGGSLRLSCAASGFTFSNYAMSWVRQAPGKGLEWVATVTEGGDYNYALDDVKGRFTISRDNAKNSLYLQMNSLRAEDTAVYYCARDRWPYFFDYWGQGTLVTVSS
VL: DIQMTQSPSSLSASVGDRVTITCRASENIYSNLAWYQQKPGKAPKLLVYGAKNLADGVPSRFSGSGSGTDYTLTISSLQPEDFATYYCQHFWTTPRTFGGGTKVEIK
notes: Human IgG1/kappa constant domains
B2: h11C5_C59S (antibody, human IgG1, V domains shown)
VH: B1 VH with A60S
VL: B1 VL
notes: as for B1
B3: h11C5_C59T (antibody, human IgG1, V domains shown)
VH: B1 VH with A60T
VL: B1 VL
notes: as for B1
B4: h11C5_C59Y (C59Y variant of h11C5) (antibody, human IgG1, V domains shown)
VH: B1 VH with A60Y
VL: B1 VL
notes: as for B1
B5: h11C5 (humanized 11C5 mAb) (antibody, human IgG1, kappa, N297G, V domains shown)
VH: B1 VH with A60C
VL: DIQMTQSPSSLSASVGDRVTITCRASENIYSNLAWYQQKPGKAPKLLVYGAKNLADGVPSRFSGSGSGTDYTLTISSLQPEDFATYYCQHFWTTPRTFGGGTKVEIKR
notes: Human IgG1/kappa
B6: c11C5_C59A (antibody, IgG1, V domains shown)
VH: EVQLVESGGGLVKPGGSLKLSCAASGFTFSNYAMSWVRQTPEKRLEWVATVTEGGDYNYALDDVKGRFTISRDNANDNLYLQMSHLKSEDSARYYCARDRWPYFFDYWGQGTTLTVSS
VL: DIQMTQSPASLSVSVGETVTITCRASENIYSNLAWYQQKQGRSPQLLVYGAKNLADGVPSRFSGSGSGTQYSLNINSLQSEDFGTYYCQHFWTTPRTFGGGTKLEIK
notes: Murine VL and VH, human CL and IgG1 CH1-CH3 domains
B7: m11C5_C59A (antibody, mouse IgG2a, V domains shown)
VH: B6 VH
VL: B6 VL
notes: Murine IgG2a constant domains
B8: m11C5_C59S (antibody, mouse IgG2a, V domains shown)
VH: B6 VH with A60S
VL: B6 VL
notes: Murine IgG2a constant domains
B9: m11C5_C59T (antibody, mouse IgG2a, V domains shown)
VH: B6 VH with A60T
VL: B6 VL
notes: Murine IgG2a constant domains
B10: m11C5_C59V (antibody, mouse IgG2a, V domains shown)
VH: B6 VH with A60V
VL: B6 VL
notes: Murine IgG2a constant domains
B11: m11C5_C59Y (antibody, mouse IgG2a, V domains shown)
VH: B6 VH with A60Y
VL: B6 VL
notes: Murine IgG2a constant domains
B12: m11C5 (recombinant murine 11C5) (antibody, mouse IgG2a, V domains shown)
VH: B6 VH with A60C
VL: B6 VL
notes: Murine IgG2a constant domains
B13: c11C5 (chimeric 11C5) (antibody, IgG1, V domains shown)
VH: B6 VH with A60C
VL: B6 VL
notes: as for B6
B14: K13/H2 Fab (VL-A51Y/W92I, VH-R96D) (Fab, V domains shown)
VH: B1 VH with A60Y, R100D
VL: B1 VL with A43S, A51Y, W92I
notes: Fab with 8xHis tag
B15: K13/H3 Fab (VL-A51Y/W92I, VH-V51S) (Fab, V domains shown)
VH: B1 VH with V51S, A60Y
VL: B1 VL with A43S, A51Y, W92I
notes: Fab with 8xHis tag
B16: K17/H2 Fab (VL-A51Y/W92K, VH-R96D) (Fab, V domains shown)
VH: B1 VH with A60Y, R100D
VL: B1 VL with A43S, A51Y, W92K
notes: Fab with 8xHis tag
B17: K17/H3 Fab (VL-A51Y/W92K, VH-V51S) (Fab, V domains shown)
VH: B1 VH with V51S, A60Y
VL: B1 VL with A43S, A51Y, W92K
notes: Fab with 8xHis tag

Biological target: T1, hu-M-IL1RAP construct, positions …
Test: BLI (OCTET), mAb captured, 25 C
Procedure: All samples were placed in black 96-well plates and the experiment was performed at 25° C. […] The biosensors were equilibrated in experimental buffer at 25° C. for ten minutes prior to starting the experiment.
The resulting BLI signal from analyte association and dissociation from the immobilized antibody was analyzed using the Octet Data Analysis software (Pall ForteBio). First, a reference subtraction was performed on all recorded traces using the reference well (biosensor that underwent the same steps as experimental wells but no analyte for the Association step), then all the traces were aligned to the beginning of the Association step.

Binder | Kd [nM]
B1 | 2.06
B2 | 1.08
B3 | 3.26
B4 | 1.34
B5 | 1.06
B6 | 0.756
B7 | 0.513
B8 | 0.598
B9 | 1.38
B10 | 0.604
B11 | 0.524
B12 | 0.37
B13 | 0.699

Biological target: T2, human IL1RAP (hu-IL1RAP) on human cells
Test: cell-based or functional assay

Binder | HEK-Blue, IL-1β, IC50 [nM] | HEK-Blue, IL-33, IC50 [nM] | HEK-Blue, IL-33, % inhibition at 100 nM [%]
B4 | 1.03 | 3.75 | 
B5 | 3.12 | 24 | 80
B12 | 0.705 | 2.25 | 

Biological target: T1, hu-M-IL1RAP construct, positions …
Test: SPR, Fab analyte, 37 C
Procedure: Surface plasmon resonance (SPR) analysis was used to determine binding affinity for hu-M-IL1RAP of the purified Fabs containing the selected single, double, and triple mutations in either the VL or VH regions using a BIACORE™ 8K instrument. […] For kinetics measurements, 5 nM biotinylated hu-M-IL1RAP was captured at 10 μL/min to achieve ˜50 response units in the second flow cell (FC2). FC1 was kept as a reference. […] The sensorgrams were recorded and subjected to reference and buffer subtraction before data analysis with the BIACORE® 8K Evaluation Software (version 1.1.1.7442). Association rates (kₒₙ) and dissociation rates (koff) were calculated using a simple one-to-one Langmuir binding model. The equilibrium dissociation constant (KD) was calculated as the ratio of koff/kₒₙ.

Binder | Kd [nM] | koff [s⁻¹] | kon [M⁻¹ s⁻¹]
B14 | 0.0227 | 0.000115 | 5.08e+06
B15 | 0.0211 | 0.000109 | 5.17e+06
B16 | 0.0293 | 0.000121 | 4.15e+06
B17 | 0.0315 | 0.00012 | 3.81e+06

Biological target: T2, human IL1RAP (hu-IL1RAP) on human cells
Test: cell-based or functional assay
Remark: another data set of the same source

Binder | HEK-Blue, IL-1β, % inhibition at 100 nM (Fab) [%] | HEK-Blue, IL-1β, IC50 (Fab) [nM] | HEK-Blue, IL-33, % inhibition at 100 nM (Fab) [%] | HEK-Blue, IL-33, IC50 (Fab) [nM] | HEK-Blue, IL-36α, % inhibition at 100 nM (Fab) [%] | HEK-Blue, IL-36α, IC50 (Fab) [nM]
B14 | 100 | 0.539 | 98 | 2.39 | 99 | 0.548
B15 | 100 | 0.898 | 99 | 2.07 | 98 | 0.462
B16 | 100 | 1.86 | 97 | 4.71 | 100 | 0.93
B17 | 100 | 1.32 | 98 | 3.53 | 100 | 0.8

From US20260015426A1 (23ANDME, published 2026)
